Legend:
Assay in all cases: co-purification after bacterial coexpression, molar ratio by rpHPLC; (Ca2+)4-CaM copurified with His-GST-tagged FGF NTD fragments; complexes separated on a C-18 column, ratio from peak areas at 220 nm
[1] = biological target: FGF14ANTD (FGF14A N-terminal domain, aa 1-68) (human) (UniProt Q92915)
[2] = biological target: FGF12ANTD (FGF12A N-terminal domain, aa 1-70) (human) (UniProt P61328)
[3] = biological target: FGF11ANTD (FGF11A N-terminal domain, aa 1-68) (human) (UniProt Q92914)
Chain of FGF11ANTD (FGF11A N-terminal domain, aa 1-68) (human) (Q92914 other isoform, or with tags, fused parts or gaps): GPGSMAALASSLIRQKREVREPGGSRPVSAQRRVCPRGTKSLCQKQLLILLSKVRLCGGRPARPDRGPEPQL

[4] = biological target: FGF13ANTD (FGF13A N-terminal domain, aa 1-66) (human) (UniProt Q92913)
Chain of FGF13ANTD (FGF13A N-terminal domain, aa 1-66) (human) (Q92913 other isoform, or with tags, fused parts or gaps): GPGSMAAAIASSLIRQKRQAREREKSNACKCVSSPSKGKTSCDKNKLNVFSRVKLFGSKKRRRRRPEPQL

Measured: stoichiometry N ((Ca2+)4-CaM per FGF NTD)

Chain of FGF12ANTD (FGF12A N-terminal domain, aa 1-70) (human) (P61328 other isoform, or with tags, fused parts or gaps): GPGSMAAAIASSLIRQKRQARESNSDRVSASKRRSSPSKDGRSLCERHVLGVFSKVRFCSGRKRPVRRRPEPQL
Chain of FGF14ANTD (FGF14A N-terminal domain, aa 1-68) (human) (Q92915 other isoform, or with tags, fused parts or gaps): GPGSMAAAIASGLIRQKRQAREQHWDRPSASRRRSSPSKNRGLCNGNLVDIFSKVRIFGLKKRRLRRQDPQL

calmodulin, wild type, full-length (aa 1-148) (from UniProt P0DP23 1-149) (natural protein)
1: all assays above

Source: publication PMC8059062
